Test results as given in patent US20230331816A1, “A METHOD FOR PREPARING PORCINE MYOGLOBIN USING ESCHERICHIA COLI” (iNtRON Biotechnology, Inc., priority 2020, published 2023).

Tested on: iron-deficiency-anemia-induced animals
Assay type: in vivo, Sprague-Dawley rats
Description: The composition containing porcine myoglobin prepared according to the present invention was administered to iron-deficiency-anemia-induced animals, whereby the effectiveness of the composition containing porcine myoglobin on alleviating anemia was evaluated. Specifically, after 2 weeks acclimation period, thirty 9-week old Sprague-Dawley rats (female) were divided into 3 groups of 10 rats per group, among which one group was fed with normal feed in an amount of 10% of body weight daily for […] (Group 1; control), and the remaining two groups were fed with iron-deficient feed in an amount of 10% of body weight daily for 6 weeks to induce iron-deficiency anemia (Group 2 and Group 3). After 6 weeks of feeding, it was confirmed that iron-deficiency anemia was induced in the individual rat belonging to Group 2 and Group 3. Then, one of the anemia-induced groups was orally administered once a day with saline alone (Group 2), and the other anemia-induced group was orally administered once a day with solution containing porcine myoglobin (0.1 mg Fe/500 μl solution, Group 3). The administration continued for 5 weeks. During 5 weeks of administration to Group 2 and Group 3, Group 1 was continuously fed with normal feed, and Group 2 and Group 3 were fed with iron-deficient feed. […] After 5 weeks of administration, blood was collected, and whether anemia was alleviated was evaluated.

[1] = female Sprague-Dawley rats on iron-deficient feed, oral once a day, 0.1 mg Fe/500 μl solution, 5 weeks

B1: porcine myoglobin: porcine myoglobin consisting of a globin of SEQ ID NO: 1 and a heme of formula 1, made with Escherichia coli (protein)
chain: MGLSDGEWQLVLNVWGKVEADVAGHGQEVLIRLFKGHPETLEKFDKFKHLKSEDEMKASEDLKKHGNTVLTALGGILKKKGHHEAELTPLAQSHATKHKIPVKYLEFISEAIIQVLQSKHPGDFGADAQGAMSKALELFRNDMAAKYKELGFQG
modifications: heme; Porcine myoglobin
- Effectiveness at alleviating iron-deficiency anemia (conclusion from blood analysis after 5 weeks of administration): effective at alleviating iron-deficiency anemia
- Blood test: Hematocrit [1]: 39.8 ± 1.0%
- Blood test: Hemoglobin content [1]: 13.7 ± 0.6 g/dL
- Weight of rats on 5 weeks after administration [1]: 327.2 ± 3.1 g
